What was measured:
[1] = spotting on 7H11 OADC plates; conditions: glycan lost
[2] = glycan lost

B1: LprG (Rv1411c): LprG T231A (protein)
parent chain: MRTPRRHCRRIAVLAAVSIAATVVAGCSSGSKPSGGPLPDAKPLVEEATAQTKALKSAHMVLTVNGKIPGLSLKTLSGDLTTNPTAATGNVKLTLGGSDIDADFVVFDGILYATLTPNQWSDFGPAADIYDPAQVLNPDTGLANVLANFADAKAEGRDTINGQNTIRISGKVSAQAVNQIAPPFNATQPVPATVWIQETGDHQLAQAQLDRGSGNSVQMTLSKWGEKVQVTKPPVS
With B1 the “other: colony formation on solid medium” value [1] was “no change”.

B2: LprG (Rv1411c): lprG A691G (T231A) (protein)
parent chain: MRTPRRHCRRIAVLAAVSIAATVVAGCSSGSKPSGGPLPDAKPLVEEATAQTKALKSAHMVLTVNGKIPGLSLKTLSGDLTTNPTAATGNVKLTLGGSDIDADFVVFDGILYATLTPNQWSDFGPAADIYDPAQVLNPDTGLANVLANFADAKAEGRDTINGQNTIRISGKVSAQAVNQIAPPFNATQPVPATVWIQETGDHQLAQAQLDRGSGNSVQMTLSKWGEKVQVTKPPVS
For B2, the “other: invasion and growth in macrophages” value [2] was “no change”.

Reference: paper PMC5554173
